What is called Kd is the constant that tells how readily two partners part at equilibrium.

The values below come from patent US20230338589A1.

For test [1], the target named is T1, interferon gamma (IFN-γ), murine, recombinant (mouse) (UniProt P01580).
T1 sequence (looked up): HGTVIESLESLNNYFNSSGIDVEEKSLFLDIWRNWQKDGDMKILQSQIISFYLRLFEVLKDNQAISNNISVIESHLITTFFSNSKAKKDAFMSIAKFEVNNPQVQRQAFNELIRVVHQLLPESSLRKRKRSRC
The test can be described thus: Octet (BLI) analysis of binding affinity; format not stated. (BLI is a label-free optical method that tracks binding on a fibre tip over time.)

Test [2] addresses T1, interferon gamma (IFN-γ), murine, recombinant (mouse). In words: cell-based or functional assay.
Test [3] has the same target. The test can be described thus: radioligand cell assay: TUBO cells preincubated with recombinant IFN-γ (10 ng/mL), washed, then incubated with tracer 1 h at 37 C; acid-wash fraction read by gamma counter; background without IFN-γ 1.13 ± 0.28%.

On to “anti-IFN-γ diabody (homodimer of the single chain Fv derived from clone AN18, produced in CHO cells)”, for which, in test [1], the Kd came out at 37.9 nM.

B1: ^89Zr-anti-IFN-γ labeled-antibody conjugate (AN-18 conjugated to p-SCN-Bn-desferrioxamine and labeled with ^89Zr) (antibody, rat IgG1, V domains shown)
VH: QVQLKESGPGLVQPSQTLSLTCTVSGFSLDSYNVHWVRQPPGKGLEWMGRMKYNGDTSYNSALKSRLRISRDTSKNQVFLKMNSLQTDDTGTYYCTRDWHYGYPSPYFEFWGQGVMVTVSS
VL: DVQMTQSPSYLAASPGESVSISCKASKNINTYLAWYQEKPGKTNKLLIYSGSTLQSGTPSRFSGSGSGTDFTLTIRSLEPEDFAVYYCQQHNEYPLTFGSGTKLEVKR
modifications: p-SCN-Bn-Desferrioxamine (DFO) conjugated to the antibody (Ab:DFO 1:5), chelating ^89Zr; sites not stated
Regarding B1, the internalization (% internalized activity) in TUBO cells preincubated with IFN-γ in test [2] came to 3.93%. The surface binding (% of activity) in test [3] worked out at 13.6%.
